Laboratory results from article PMC8001533, “A Tryptophan ‘Gate’ in the CRISPR-Cas3 Nuclease Controls ssDNA Entry into the Nuclease Site, That When Removed Results in Nuclease Hyperactivity”.

What was measured:
[1] = biological target: T1, Cas3 wild type (Escherichia coli K-12 MG1655, UniProt P38036 1-888); assay: EMSA; EMSA: 20 nM fork DNA, 50 mM Tris-HCl pH 7.5, 100 mM NaCl, 0.1 mg/mL BSA, 20 mM DTT, room temperature, 1 h; details: protein: recombinant; tags: (His)6-MBP N-terminal (pCas3); a His6-only construct (pAH4) also exists; label: 5'-Cy5 on strand 1 (MW12); fork 1:2; as printed strand 1 nt 2-25 pair with strand 2 nt 27-50
T1 sequence: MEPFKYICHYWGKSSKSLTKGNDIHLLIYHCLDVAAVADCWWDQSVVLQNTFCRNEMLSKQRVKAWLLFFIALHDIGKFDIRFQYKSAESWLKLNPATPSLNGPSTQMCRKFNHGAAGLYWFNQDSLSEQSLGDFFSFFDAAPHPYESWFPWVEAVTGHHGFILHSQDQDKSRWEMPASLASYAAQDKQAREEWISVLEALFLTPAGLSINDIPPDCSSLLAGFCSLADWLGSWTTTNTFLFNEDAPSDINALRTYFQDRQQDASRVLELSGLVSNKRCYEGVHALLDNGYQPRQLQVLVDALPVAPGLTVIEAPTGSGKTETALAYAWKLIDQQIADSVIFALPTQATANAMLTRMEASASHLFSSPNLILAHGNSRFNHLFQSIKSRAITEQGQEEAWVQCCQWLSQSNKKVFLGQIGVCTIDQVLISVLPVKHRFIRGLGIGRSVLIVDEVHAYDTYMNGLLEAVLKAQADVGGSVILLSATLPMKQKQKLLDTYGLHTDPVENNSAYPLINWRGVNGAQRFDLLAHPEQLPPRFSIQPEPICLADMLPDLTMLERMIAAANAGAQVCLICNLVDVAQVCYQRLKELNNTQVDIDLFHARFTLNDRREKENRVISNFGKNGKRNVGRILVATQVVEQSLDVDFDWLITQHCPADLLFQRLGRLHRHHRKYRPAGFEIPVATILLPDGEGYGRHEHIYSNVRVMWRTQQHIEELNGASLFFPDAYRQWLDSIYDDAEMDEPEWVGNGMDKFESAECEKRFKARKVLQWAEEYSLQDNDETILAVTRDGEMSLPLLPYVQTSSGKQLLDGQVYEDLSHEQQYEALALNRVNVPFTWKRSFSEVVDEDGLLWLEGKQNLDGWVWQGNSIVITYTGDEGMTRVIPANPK

[2] = biological target: T2, Cas3W406A (Escherichia coli K-12 MG1655, UniProt P38036 1-888, W406A); assay: EMSA; not more stable or efficient than wild type; EMSA: 20 nM fork DNA, 50 mM Tris-HCl pH 7.5, 100 mM NaCl, 0.1 mg/mL BSA, 20 mM DTT, room temperature, 1 h; details: protein: recombinant; tags: (His)6-MBP or His6 (pIIB39 is the His6 pAH4 version); label: 5'-Cy5 on strand 1 (MW12); fork 1:2; as printed strand 1 nt 2-25 pair with strand 2 nt 27-50
T2 sequence: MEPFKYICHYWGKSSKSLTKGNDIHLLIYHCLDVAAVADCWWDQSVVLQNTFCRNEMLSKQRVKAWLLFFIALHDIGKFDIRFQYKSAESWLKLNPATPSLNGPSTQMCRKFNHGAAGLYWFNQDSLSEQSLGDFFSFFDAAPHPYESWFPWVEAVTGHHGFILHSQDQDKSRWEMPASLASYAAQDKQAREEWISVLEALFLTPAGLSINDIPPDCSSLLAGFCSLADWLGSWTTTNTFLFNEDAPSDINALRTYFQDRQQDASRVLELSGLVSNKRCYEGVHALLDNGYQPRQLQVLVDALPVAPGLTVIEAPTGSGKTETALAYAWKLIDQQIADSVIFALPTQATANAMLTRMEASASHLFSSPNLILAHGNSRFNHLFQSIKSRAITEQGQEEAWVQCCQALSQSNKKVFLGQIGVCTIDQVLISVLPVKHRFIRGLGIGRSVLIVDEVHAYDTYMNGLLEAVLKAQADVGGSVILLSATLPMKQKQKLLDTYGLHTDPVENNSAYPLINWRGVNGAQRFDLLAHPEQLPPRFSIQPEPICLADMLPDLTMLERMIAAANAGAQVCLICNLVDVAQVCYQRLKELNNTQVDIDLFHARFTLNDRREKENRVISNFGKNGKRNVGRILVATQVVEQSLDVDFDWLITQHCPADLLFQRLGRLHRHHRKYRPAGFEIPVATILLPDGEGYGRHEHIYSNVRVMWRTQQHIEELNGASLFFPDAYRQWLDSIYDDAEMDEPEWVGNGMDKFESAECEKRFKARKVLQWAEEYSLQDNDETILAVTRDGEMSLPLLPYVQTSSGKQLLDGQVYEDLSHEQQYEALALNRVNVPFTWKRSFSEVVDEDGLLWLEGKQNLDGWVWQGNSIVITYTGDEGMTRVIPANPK

B1: DNA fork MW12/MW14 (mixed)
DNA 1: GTCGGATCCTCTAGACAGCTCCATGATCACTGGCACTGGTAGAATTCGGC
DNA 2: CAACGTCATAGACGATTACATTGCTACATGGAGCTGTCTAGAGGATCCGA
binding result [1]: binds | binding result [2]: binds
